Reference: patent US20260297200 (published 2026)
Values belong to the binder of their own block, whether it stands above or below them.

Experiments:
[1] = biological target: EGFR-moFc S442R (human); assay: ELISA
[2] = biological target: MET-huFc (human); assay: ELISA
[3] = biological target: T1, mouse EGFR-His (mouse); assay: ELISA, 10 nM
T1 chain: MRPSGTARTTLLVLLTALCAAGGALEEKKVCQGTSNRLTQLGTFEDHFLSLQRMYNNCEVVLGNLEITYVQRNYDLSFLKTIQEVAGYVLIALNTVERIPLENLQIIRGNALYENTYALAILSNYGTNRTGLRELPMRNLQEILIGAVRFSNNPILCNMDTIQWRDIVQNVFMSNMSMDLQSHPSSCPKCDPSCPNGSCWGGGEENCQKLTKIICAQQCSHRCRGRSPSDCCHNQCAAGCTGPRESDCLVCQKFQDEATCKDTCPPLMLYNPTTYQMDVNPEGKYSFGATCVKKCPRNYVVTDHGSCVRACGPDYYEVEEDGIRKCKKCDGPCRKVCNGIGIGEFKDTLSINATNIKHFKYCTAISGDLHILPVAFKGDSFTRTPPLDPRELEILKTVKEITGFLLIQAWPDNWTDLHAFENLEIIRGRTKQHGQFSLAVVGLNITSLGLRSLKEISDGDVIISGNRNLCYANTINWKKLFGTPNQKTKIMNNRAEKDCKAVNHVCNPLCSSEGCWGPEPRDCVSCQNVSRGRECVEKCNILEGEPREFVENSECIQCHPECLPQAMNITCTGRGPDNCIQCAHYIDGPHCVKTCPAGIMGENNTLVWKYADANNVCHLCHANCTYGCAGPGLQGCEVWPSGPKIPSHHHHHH

binding result [1]: no binding
B1: Necitumumab (antibody, V domains shown)
VH: QVQLQESGPGLVKPSQTLSLTCTVSGGSISSGDYYWSWIRQPPGKGLEWIGYIYYSGSTDYNPSLKSRVTMSVDTSKNQFSLKVNSVTAADTAVYYCARVSIFGVGTFDYWGQGTLVTVSS
VL: EIVMTQSPATLSLSPGERATLSCRASQSVSSYLAWYQQKPGQAPRLLIYDASNRATGIPARFSGSGSGTDFTLTISSLEPEDFAVYYCHQYGSTPLTFGGGTKAEIKR

EC50 [2]: 4.1 nM
B2: eIg 1+1 H10x5D5 MET arm (antibody, V domains shown)
VH: EVQLVESGGGLVQPGGSLRLSCAASGYTFTSYWLHWVRQAPGKGLEWVGMIDPSNSDTRFNPNFKDRFTISADTSKNTAYLQMNSLRAEDTAVYYCATYRSYVTPLDYWGQGTLVTVSS
VL: DIQMTQSPSSLSASVGDRVTITCKSSQSLLYTSSQKNYLAWYQQKPGKAPKLLIYWASTRESGVPSRFSGSGSGTDFTLTISSLQPEDFATYYCQQYYAYPWTFGQGTKVEIKR

binding result [3]: no binding
B3: Panitumumab (antibody, V domains shown)
VH: QVQLQESGPGLVKPSETLSLTCTVSGGSVSSGDYYWTWIRQSPGKGLEWIGHIYYSGNTNYNPSLKSRLTISIDTSKTQFSLKLSSVTAADTAIYYCVRDRVTGAFDIWGQGTMVTVSS
VL: DIQMTQSPSSLSASVGDRVTITCQASQDISNYLNWYQQKPGKAPKLLIYDASNLETGVPSRFSGSGSGTDFTFTISSLQPEDIATYFCQHFDHLPLAFGGGTKVEIKR
